Assay results taken from patent publication US20220356229A1 (published 2022).

What was measured:
[1] = target: SARS-CoV-2 full length Spike protein, wild type, expressed on CHO cells (SARS-CoV-2, UniProt P0DTC2 14-1273)
[2] = target: SARS-CoV-2 full length Spike protein, wild type (SARS-CoV-2, UniProt P0DTC2 14-1208)

B1: anti-SARS-CoV-2 antibody 936 (antibody, V domains shown)
VH: EVQLVESGGGLVQPGRSLTLSCAGSGFTFDDYAMHWVRQAPGKGLEWVSGISWNSGSIGYADSVKGRFTISRDNAKNSLYLQMNSLRAEDTALYYCAKDVSYDSSGYYNNAFDIWGQGTMVTVSS
VL: DIQLTQSPSFLSASVGDRVTITCRASQGISSYLAWYQQKPGKAPKLLIYAASTLQSGVPSRFSGSGSGTEFTLTISSLQPEDFATYYCQQLYSYPVTFGQGTRLEIKR
median fluorescence intensity, fold over isotype control [1]: 33.1 fold over isotype

B2: anti-SARS-CoV-2 antibody 1139 (antibody, V domains shown)
VH: QVQLVQSGAEVKKPGASVKVSCKASGYTFSSYEINWVRQATGQGLEWMGRMTLNSGNTGYAQNFQGRVTMTRDTSISTAYMELSGLRSEDTAVYYCARMRSGWPTHGRPDDYWGQGTLVTVSS
VL: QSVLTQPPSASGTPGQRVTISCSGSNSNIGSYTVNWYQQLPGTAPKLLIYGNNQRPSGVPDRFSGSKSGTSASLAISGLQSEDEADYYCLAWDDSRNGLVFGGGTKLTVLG
median fluorescence intensity, fold over isotype control [1]: 20.3 fold over isotype

B3: antibody 348 (antibody, V domains shown)
VH: QVQLVQSGSELKKPGASVKVSCKASGYTFTSYAMNWVRQAPGQGLEWMGWINTNTGNPTYAQGFTGRFVFSLDTSVSTAYLQISSLKAEDTAVYYCARDHELPNTSSWFGHFEYWGQGTLVTVSS
VL: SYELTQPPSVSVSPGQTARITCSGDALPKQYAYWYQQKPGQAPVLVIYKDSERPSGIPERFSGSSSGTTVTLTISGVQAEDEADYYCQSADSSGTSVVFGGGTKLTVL
bead binding signal (fold over isotype) [2]: 869 fold over isotype

B4: antibody 363 (antibody, V domains shown)
VH: EVQLLESGGGLVQPGGSLRLSCAASGFTFSTYAMSWVRQAPGKGLEWVSAISGSGGSTYYADSVKGRFTISRDNSKNTLYLQMNSLRAEDTAVYYCASGYSPDYWGQGTLVTVSS
VL: not shown
bead binding signal (fold over isotype) [2]: 1030 fold over isotype

B5: antibody 343 (antibody, V domains shown)
VH: QVQLVESGGDVVQPGTSLRLSCAASGFTFNNYGFHWVRQAPGKGLEWVALISSDGASTHYADSVKGRFTISRDSSVNTLYLQMNSLSLEDTAVYYCATGHCGTTCYYFDYWGQGTLVSVSS
VL: DIQVTQSPSYLSASVGDRVTITCRASQTISTFLQWYQQKVGKAPKLLIYAASTLQSGVPSRFSGSGSGTDFSLTISSLQPEDFATYYCQQSYSAPLSFGGGTKVEIK
bead binding signal (fold over isotype) [2]: 1.2 fold over isotype

B6: anti-SARS-CoV-2 antibody 1135 (antibody, V domains shown)
VH: EVQLVESGGGLVQPGRSLRLSCAASGLTFEDYAMHWVRQVPGKGLEWVSGISWNSGTIGYADSVKGRFIISRDNAKNSLYLQMRSLRAEDTALYYCAKDVGFGELLYYAFDIWGQGTMVTVSS
VL: QSALTQPASVSGSPGQSITISCTGTSSDVGGYNYVSWYQQHPGKAPKLMIYDVSNRPSGVSNRFSGSKSGNTASLTISGLQAEDEADYYCSSYTSSSTVVFGGGTKLTVLG
median fluorescence intensity, fold over isotype control [1]: 10.9 fold over isotype

B7: anti-SARS-CoV-2 antibody 1149 (antibody, V domains shown)
VH: QVQLVQSGAEVKKPGASVKVSCKASGYTFASYDINWVRQATGQGPEWMGWMIPNIGNTGYAQKFQGRVTMTRNTSISTAYMELSSLTSEDTAVYYCARVSRLFNDFGLRHEAPVDFWGQGTRVTVSS
VL: QSVLTQPPSVSGAPGQRVTISCTGSSSNIGAGYDVHWYQQLPGTAPKLLIYGYSSRPSGVPDRFSGSKSGTSASLAITGLQAEDEADYYCQSYDSSLSVLFGGGTKLTVLG
median fluorescence intensity, fold over isotype control [1]: 19.2 fold over isotype

B8: antibody 340 (antibody, V domains shown)
VH: QVQLVQSGAEVKKPGASVKVSCKASGYTFTSYDINWVRQATGQGLEWMGWMNPNSGNTGYAQKFQGRVTMTRNTSISTAYMELSSLRSEDTAVYYCARGRYCTGGVCWGDWYFDLWGRGTLVTVSS
VL: QSVLTQPPSVSGAPGQRVTISCTGSSSNIGAGYDVHWYQQLPGTAPKFLIYGNSNRPSGVPDRFSGSKSGTSASLAITGLQAEDEADYYCQSYDSSLSGPVFGGGTKLTVL
bead binding signal (fold over isotype) [2]: 547 fold over isotype

B9: anti-SARS-CoV-2 antibody 1036 (antibody, V domains shown)
VH: QVQLVQSGAEVKKPGSSVKVSCKASGGTLSSYTISWVRQAPGQGLEWMGRIIPILGIADYAQKFQGRVTITADKSTTTAYMDLSSLGSEDTALYYCASAPKDWSSGFDYYYGMDVWGQGTMVTVSS
VL: DIVMTQTPLSLSVTPGQPASISCKSSQSLLNSDGKTYLYWYLQKAGQPPQLLIYEVSNRFSGVPERFSGSGSGTDFTLKISRVEAEDVGVYYCMQSVQLPPYTFGQGTKLEITR
median fluorescence intensity, fold over isotype control [1]: 10.2 fold over isotype

B10: antibody 344 (antibody, V domains shown)
VH: QVQLVESGGGVVQPGRSLRLSCAASGFTFSSYAMHWVRQAPGKGLEWMAVISYDGSNKYYADSVKGRFTISRDNSKNTLYLQMNSLRAEDTAVYFCAKGYSGSYYEPFDYWGQGTLVTVSS
VL: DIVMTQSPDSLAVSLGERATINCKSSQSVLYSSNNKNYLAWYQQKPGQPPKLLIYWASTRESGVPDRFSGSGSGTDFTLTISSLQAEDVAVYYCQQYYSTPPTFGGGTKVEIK
bead binding signal (fold over isotype) [2]: 404 fold over isotype

B11: antibody 345 (antibody, V domains shown)
VH: QVQLQESGPGLVKPSQTLSLTCTVSGGSISSGDYYWSWIRQPPGKGLEWIGYIYYSGSTYYNPSLKSRVTISVDTSKNQFSLKLSSVTAADTAVYYCARVGMVDNWNFEGNWFDPWGQGTLVTVSS
VL: QSALTQPRSVSGSPGQSVTISCTGTSSDVGGYNYVSWYQQHPGKAPKLMIYDVSKRPSGVPDRFSGSKSGNTASLTISGLQAEDEADYYCCSYAGSVVFGGGTKLTVL
bead binding signal (fold over isotype) [2]: 562 fold over isotype
